These results are taken from PMC4369446 (2015).

Assay in all cases: cytokine release
Assay [1] deals with T1, Hypothetical 20 kD protein peptide on HLA-A*02:01 (human).
T1 peptide: RISAIILHPN

In assay [2] the target is T2, KIAA0735 peptide on HLA-A*02:01 (human).
T2 peptide: LISGIGIGGA

Assay [3] concerns the target T3, MRP3 peptide on HLA-A*02:01 (human).
T3 peptide: NVADIGFHDV

In assay [4] the target is T4, G-protein coupled receptor RE2 peptide on HLA-A*02:01 (human).
T4 peptide: RITDLGLSPH

The target in assay [5] is T5, P47 peptide on HLA-A*02:01 (human).
T5 peptide: RISDIRLFIV

Assay [6] concerns the target T6, SLC1A1 peptide on HLA-A*02:01 (human).
T6 peptide: VLTGLAIHSI

The target in assay [7] is T7, IGHG1 peptide on HLA-A*02:01 (human).
T7 peptide: RLSELAIFGV

The target in assay [8] is T8, Prostaglandin transporter peptide on HLA-A*02:01 (human).
T8 peptide: LLAGIGTVPI

The target of assay [9] is T9, KIAA0935 peptide on HLA-A*02:01 (human).
T9 peptide: RVTDEAGHPV

The target of assay [10] is T10, ABC transporter MOAT-C peptide on HLA-A*02:01 (human).
T10 peptide: RISDIGLADL

The target in assay [11] is T11, Endothelin-1 receptor peptide on HLA-A*02:01 (human).
T11 peptide: RVQGIGIPLV

Assay [12] has as its target T12, cMOAT2 peptide on HLA-A*02:01 (human).
T12 peptide: NVADIGLHDV

The target of assay [13] is T13, Monocarboxylate transporter 8 peptide on HLA-A*02:01 (human).
T13 peptide: AVAFIGLHTS

B1: SIG35α / TRBV27 Cl.1599 (TCR)
alpha TRAV12-2 J35 CDR3: CAVSIGFGNVL
beta TRBV27 TRBJ1-1 CDR3: CASSFLGAMAEAFF
Consider B1, for which the binding result is recorded as “no recognition” in [1]; “recognises” in assay [2]; “no recognition” in [3]; “recognises” in [4]; “no recognition” in assay [5]; “no recognition” in assay [6]. Also, the binding result in assay [7] is reported as “no recognition”; in [8], “recognises”; in assay [9], “no recognition”; in assay [10], “no recognition”; in assay [11], “no recognition”; in assay [12], “no recognition”. For the same molecule, the binding result in [13] is given as “no recognition”.

B2: SIG35α / TRBV27 Cl.1086 (TCR)
alpha TRAV12-2 J35 CDR3: CAVSIGFGNVL
beta TRBV27 TRBJ1-2 CDR3: CASSLHGPGGYTF
For B2, the binding result in assay [1], in assay [2], in assay [3], in [4], in [5] and in assay [6] was “no recognition” each time. For the same molecule, the binding result in [7] is reported as “no recognition”; in [8], “recognises”; in assay [9] it was “no recognition”; in assay [10], “no recognition”; in assay [11], “no recognition”; in assay [12], “no recognition”. Further, the binding result in assay [13] is “no recognition”.

B3: SIG35α / TRBV27 Cl.1593 (TCR)
alpha TRAV12-2 J35 CDR3: CAVSIGFGNVL
beta TRBV27 TRBJ1-5 CDR3: CASGNNQPQHF
On to B3, for which the binding result was “no recognition” in [1]; “recognises” in [2]; “no recognition” in assay [3]; “recognises” in assay [4]; “no recognition” in [5]; “no recognition” in [6]. In addition, the binding result is on record as “no recognition” in assay [7]; “recognises” in assay [8]; “no recognition” in assay [9]; “no recognition” in assay [10]; “no recognition” in [11]; “no recognition” in assay [12]. For the same molecule, in assay [13], the binding result is listed as “no recognition”.

B4: SIG35α / TRBV27 Cl.1574 (TCR)
alpha TRAV12-2 J35 CDR3: CAVSIGFGNVL
beta TRBV27 TRBJ1-1 CDR3: CASSPWERINTEAFF
Take B4: the binding result in [1] is “no recognition”; in assay [2] it was “recognises”; in assay [3], “no recognition”; in assay [4], “recognises”; in assay [5], “no recognition”; in [6] it was “recognises”. Further, the binding result in [7] was “no recognition”; in assay [8], “recognises”; in assay [9], “no recognition”; in assay [10], “no recognition”; in assay [11], “no recognition”; in assay [12] it was “no recognition”. In addition, the binding result in [13] is “no recognition”.

B5: SIG35α / TRBV27 Cl.788 (TCR)
alpha TRAV12-2 J35 CDR3: CAVSIGFGNVL
beta TRBV27 TRBJ2-7 CDR3: CASGPSYEQYF
As for B5, the binding result in assay [1] is given as “no recognition”; in [2] it was “no recognition”; in assay [3], “no recognition”; in [4], “recognises”; in assay [5], “no recognition”; in [6], “no recognition”. For the same molecule, the binding result in [7] was “no recognition”; in assay [8] it was “recognises”; in [9], “no recognition”; in assay [10], “no recognition”; in [11] it was “no recognition”; in assay [12], “no recognition”. In addition, in assay [13], the binding result is on record as “no recognition”.

B6: SIG35α / TRBV27 Cl.794 (TCR)
alpha TRAV12-2 J35 CDR3: CAVSIGFGNVL
beta TRBV27 TRBJ1-2 CDR3: CASSLLGDYGYTF
Regarding B6, the binding result in assay [1] is recorded as “no recognition”; in assay [2] it was “recognises”; in [3], “no recognition”; in [4] it was “recognises”; in [5] it was “no recognition”; in assay [6] it was “no recognition”. The binding result is “no recognition” in assay [7]; “recognises” in [8]; “no recognition” in [9]; “no recognition” in [10]; “no recognition” in [11]; “no recognition” in assay [12]. Besides, the binding result in [13] was “no recognition”.

B7: SIG35α / TRBV27 Cl.523 (TCR)
alpha TRAV12-2 J35 CDR3: CAVSIGFGNVL
beta TRBV27 TRBJ2-7 CDR3: CASGSYEQYF
As to B7, the binding result in [1] was “no recognition”; in assay [2] it was “recognises”; in [3], “no recognition”; in assay [4] it was “recognises”; in [5] it was “no recognition”; in assay [6], “no recognition”. In addition, the binding result is “no recognition” in [7]; “recognises” in assay [8]; “no recognition” in [9]; “no recognition” in [10]; “no recognition” in [11]; “no recognition” in [12]. Moreover, the binding result in assay [13] is given as “no recognition”.

B8: SIG35α / TRBV27 Cl.1606 (TCR)
alpha TRAV12-2 J35 CDR3: CAVSIGFGNVL
beta TRBV27 TRBJ2-7 CDR3: CASSLLGSYEQYF
With B8, the binding result in [1] is “no recognition”; in assay [2], “recognises”; in assay [3] it was “no recognition”; in [4], “recognises”; in [5], “no recognition”; in assay [6], “recognises”. Besides, the binding result is on record as “no recognition” in assay [7]; “recognises” in [8]; “no recognition” in assay [9]; “no recognition” in [10]; “no recognition” in assay [11]; “no recognition” in [12]. Besides, the binding result in [13] is listed as “no recognition”.

B9: SIG35α / TRBV27 Cl.413 (TCR)
alpha TRAV12-2 J35 CDR3: CAVSIGFGNVL
beta TRBV27 TRBJ1-4 CDR3: CASSVFGGDMGEKLFF
In the case of B9, the binding result in assay [1], in [2], in [3], in assay [4], in [5] and in assay [6] was “no recognition” in each case. Moreover, the binding result in [7] is “no recognition”; in assay [8], “recognises”; in assay [9] it was “no recognition”; in assay [10], “no recognition”; in assay [11], “no recognition”; in [12], “no recognition”. In addition, the binding result in assay [13] is “no recognition”.

B10: SIG35α / TRBV27 Cl.758 (TCR)
alpha TRAV12-2 J35 CDR3: CAVSIGFGNVL
beta TRBV27 TRBJ2-2 CDR3: CASSPRLAGDGELFF
As to B10, the binding result in assay [1] is “no recognition”; in assay [2] it was “no recognition”; in assay [3], “no recognition”; in assay [4], “recognises”; in assay [5] it was “no recognition”; in assay [6] it was “no recognition”. The binding result in assay [7] is given as “no recognition”; in assay [8], “recognises”; in assay [9] it was “no recognition”; in [10], “no recognition”; in assay [11], “no recognition”; in [12], “no recognition”. Also, the binding result in assay [13] is listed as “no recognition”.
